Assay results as given in US20230416410A1 (ZOETIS SERVICES, published 2023).

T1: CTLA4 Fc bIgG3aWin (canine; bovine, UniProt Q9XSI1 36-161, limits assumed)
T1 construct: No linker
T1 sequence: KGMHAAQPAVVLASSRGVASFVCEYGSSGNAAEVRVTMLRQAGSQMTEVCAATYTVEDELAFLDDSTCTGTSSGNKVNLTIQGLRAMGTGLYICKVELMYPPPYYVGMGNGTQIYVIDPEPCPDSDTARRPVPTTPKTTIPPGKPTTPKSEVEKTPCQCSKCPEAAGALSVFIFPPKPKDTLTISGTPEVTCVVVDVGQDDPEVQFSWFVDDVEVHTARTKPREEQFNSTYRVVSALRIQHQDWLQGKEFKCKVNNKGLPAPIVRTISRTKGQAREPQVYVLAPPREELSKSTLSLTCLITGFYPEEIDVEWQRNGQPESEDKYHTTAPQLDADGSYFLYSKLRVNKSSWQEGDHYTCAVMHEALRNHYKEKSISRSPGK

T2: CTLA4 Fc bIgG3aSAS (canine; bovine, UniProt Q9XSI1 36-161, limits assumed)
T2 construct: No linker
T2 sequence: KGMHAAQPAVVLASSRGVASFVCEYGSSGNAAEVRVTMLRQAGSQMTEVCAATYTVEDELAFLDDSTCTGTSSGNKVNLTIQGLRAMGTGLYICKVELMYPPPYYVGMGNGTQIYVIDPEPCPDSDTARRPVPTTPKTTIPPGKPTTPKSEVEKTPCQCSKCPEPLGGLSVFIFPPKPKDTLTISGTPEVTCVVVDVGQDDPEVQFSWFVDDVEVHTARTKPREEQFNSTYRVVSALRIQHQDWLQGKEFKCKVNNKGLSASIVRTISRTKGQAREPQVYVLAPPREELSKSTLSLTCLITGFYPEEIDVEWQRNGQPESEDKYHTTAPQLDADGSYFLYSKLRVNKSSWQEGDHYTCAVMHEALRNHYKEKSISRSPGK

T3: CTLA4 Fc bIgG3aWinSAS (canine; bovine, UniProt Q9XSI1 36-161, limits assumed)
T3 construct: No linker
T3 sequence: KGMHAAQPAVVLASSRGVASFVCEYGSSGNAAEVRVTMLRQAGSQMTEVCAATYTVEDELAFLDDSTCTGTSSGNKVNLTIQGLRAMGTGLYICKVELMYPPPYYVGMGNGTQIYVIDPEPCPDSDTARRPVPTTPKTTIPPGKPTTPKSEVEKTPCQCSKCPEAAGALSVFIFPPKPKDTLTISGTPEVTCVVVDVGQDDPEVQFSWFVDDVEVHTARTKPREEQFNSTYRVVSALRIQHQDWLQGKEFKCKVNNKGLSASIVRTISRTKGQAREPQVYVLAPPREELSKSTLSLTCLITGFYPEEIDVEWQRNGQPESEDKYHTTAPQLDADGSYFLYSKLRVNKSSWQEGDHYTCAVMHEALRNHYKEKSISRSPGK

T4: CTLA4 Fc bIgG3a (canine; bovine, UniProt Q9XSI1 36-161, limits assumed)
T4 construct: No linker; also called bIgG3a wildtype; CTLA4 Fc bIgG3a wildtype
T4 sequence: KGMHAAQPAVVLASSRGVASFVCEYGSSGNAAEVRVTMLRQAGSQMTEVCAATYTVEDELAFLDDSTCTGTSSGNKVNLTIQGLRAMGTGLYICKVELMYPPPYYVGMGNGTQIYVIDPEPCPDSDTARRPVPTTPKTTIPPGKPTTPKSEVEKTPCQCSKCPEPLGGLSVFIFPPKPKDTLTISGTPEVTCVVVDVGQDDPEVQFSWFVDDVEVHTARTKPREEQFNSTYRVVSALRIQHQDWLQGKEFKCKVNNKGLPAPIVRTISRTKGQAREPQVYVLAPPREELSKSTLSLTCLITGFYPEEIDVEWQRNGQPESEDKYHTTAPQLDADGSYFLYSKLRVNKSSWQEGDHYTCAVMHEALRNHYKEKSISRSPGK

T5: CTLA4 Fc bIgG1aWinSS (canine; bovine, UniProt Q9XSI1 36-161, limits assumed)
T5 construct: No linker
T5 sequence: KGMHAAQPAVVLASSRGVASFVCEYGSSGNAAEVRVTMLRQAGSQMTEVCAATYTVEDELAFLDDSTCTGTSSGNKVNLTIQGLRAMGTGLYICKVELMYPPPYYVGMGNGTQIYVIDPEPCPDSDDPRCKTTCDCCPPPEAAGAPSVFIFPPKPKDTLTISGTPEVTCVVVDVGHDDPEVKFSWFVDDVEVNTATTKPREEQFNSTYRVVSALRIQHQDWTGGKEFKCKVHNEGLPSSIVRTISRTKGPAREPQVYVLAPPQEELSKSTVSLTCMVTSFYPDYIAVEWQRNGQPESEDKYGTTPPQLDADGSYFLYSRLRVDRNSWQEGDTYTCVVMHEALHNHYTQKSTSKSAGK


What was measured:
Experiment in all cases: SPR Biacore, biotinylated receptor on SA sensor, pH 7.4, 15 C
[1] = target: T1, CTLA4 Fc bIgG3aWin
Experimental: (§1) A Biacore SPR binding assay was designed to test the affinity of bovine IgG subclasses to bFcgR1, bFcgR2 and bFcgR3. All reported KD's were measured by Biacore (Cytiva, Marlborough, MA, USA) using series S SA sensor. Biotinylated-bovine FcgR1, R2 and R3 were captured on the sensor surface using a modified SA capture method to reach the desired surface density. 10 mM HEPES, 150 mM NaCl, 3 mM EDTA, 0.05% v/v surfactant P20, pH7.4 buffer was used as the running and titration buffer. Various concentrations of bovine CTLA4-Fc fusions or mAbs were titrated and flowed over the receptor surface and affinities were determined using Biacore T200 Evaluation software (Cytiva, Marlborough, MA, USA) with 1:1 binding model. The method of double referencing has been applied where the reference flow cell was subtracted from the flow cell containing immobilized receptors and blank runs containing buffer only were subtracted out from all runs. Flow cells were regenerated using 10 mM Glycine pH1.5. Runs were performed at 15° C.
(§2) Biacore methods for bFcgR1, R2, and R3 were performed as described in Examples above. […] Although the two allotypes have different KDs for bFcgR2 and bFcgR3, both wildtype allotypes do bind. All of the mutations, bIgG3Win, bIgG3WinSAS, bIgG3SAS and bIgG3SAP for both the a and b allotypes knocked down binding to bFcgR1, bFcgR2 and bFcgR3 to negligible affinities. Thus, for knocking out receptor binding, the two allotypes compare similarly.

[2] = target: T2, CTLA4 Fc bIgG3aSAS
Experimental: as §1, §2

[3] = target: T3, CTLA4 Fc bIgG3aWinSAS
Experimental: as §1, §2

[4] = target: T4, CTLA4 Fc bIgG3a
Experimental: as §1, §2

[5] = target: T5, CTLA4 Fc bIgG1aWinSS
Experimental: as §1
The ability to knock out binding to bovine Fc gamma receptors was evaluated by comparing SPR Biacore bFcgR affinity of bIgG1a and bIgG1b wildtype Fc to the bIgG1a and bIgG1b mutations, described above. All mutations made to bIgG1 are identical for the a and b allotypes. Biacore methods for bFcgR1, R2, and R3 were performed as described in Example 1.

| Binder | binding result [1] | binding result [2] | binding result [3] | Kd [4] [µM] | Kd [5] [µM] |
| --- | --- | --- | --- | --- | --- |
| recombinant bovine FcgR2 (receptor, biotin on the BAP tag (BirA), also called bFcgR2; bFcgRII) KPDLPKAVVTIQPAWINVLREDHVTLTCQGTSFSAGNLTTWFHNGSSIHTQKQPSYSFRAGSNDSGSYRCQREQTSLSDPVHLDVISDWLLLQTPSLVFQEGEPIMLRCHSWRNQPLNKITFYQDRKSKIFSYQRTNFSIPRANLSHSGQYHCTAFIGKMLHSSQPVNITVQESSSSGPSSMTHHHHHHAGLNDIFEAQKIEWHE | no binding | no binding | no binding | 0.0689 | 0.0525 |
| recombinant bovine FcgR3 (receptor, biotin on the BAP tag (BirA), also called bFcgR3; bFcgRIII) DTQTADPSKAVVLLDPQWNHVLTNDRVTLKCQGDYPVEDNSTKWWHNGTLISSQTPSYFIADVKVQDSGEYKCQTGLSAPSDPVKLEVHVGWLLLQVAQRVVNVGKPIRLKCHSWKKTPVAKVQYFRNGRGKKYSHGNSDFHIPEAKLEHSGSYFCRGIIGSKNESSESVQITVQAPETLQTVSSFFLPWHQHHHHHHAGLNDIFEAQKIEWHE | no binding |  |  | 7.17 |  |
